Results: patent US8242083B2, “Kinase substrates” (PerkinElmer Health Sciences, Inc., priority 2008, dated 2012)

What was measured:
Assay type in all cases: biochemical
[1] = molecular target: T1, BMX (Homo sapiens, UniProt P51813); experiment: TR-FRET kinase assay, BMX; conditions: Kinase Concentration 0.5 nM; 50 nM ULight-labeled substrate, 200 micromolar ATP, 2 hours
T1 sequence (P51813 1-675): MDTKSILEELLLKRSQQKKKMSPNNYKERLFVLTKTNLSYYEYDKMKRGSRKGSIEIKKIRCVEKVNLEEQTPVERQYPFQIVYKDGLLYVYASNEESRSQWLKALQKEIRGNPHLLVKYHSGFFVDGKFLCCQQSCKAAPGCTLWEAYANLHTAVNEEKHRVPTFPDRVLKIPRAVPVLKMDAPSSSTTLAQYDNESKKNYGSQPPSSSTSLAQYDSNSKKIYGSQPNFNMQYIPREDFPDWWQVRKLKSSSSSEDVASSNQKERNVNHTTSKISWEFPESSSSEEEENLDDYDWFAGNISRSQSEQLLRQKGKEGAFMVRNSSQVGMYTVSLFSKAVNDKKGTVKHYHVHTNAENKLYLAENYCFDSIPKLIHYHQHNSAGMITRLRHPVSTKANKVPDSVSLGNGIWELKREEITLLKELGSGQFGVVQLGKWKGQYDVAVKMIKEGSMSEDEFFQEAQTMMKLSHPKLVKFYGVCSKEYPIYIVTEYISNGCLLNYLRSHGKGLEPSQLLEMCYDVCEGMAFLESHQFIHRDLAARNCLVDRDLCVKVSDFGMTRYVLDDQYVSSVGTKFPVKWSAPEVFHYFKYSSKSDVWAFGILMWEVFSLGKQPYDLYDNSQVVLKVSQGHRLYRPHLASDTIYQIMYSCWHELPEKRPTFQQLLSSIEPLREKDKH
Protocol: (§1) TR-FRET kinase assays are performed under standardized conditions: various individual kinases are incubated with 50 nM of kinase substrate BRB1 labeled with the TR-FRET acceptor dye ULight (PerkinElmer) and 200 micromolar ATP in 10 μL of kinase assay buffer (50 mM HEPES pH7.5, 10 mM MgCl2, 3 mM MnCl2, 1 mM EGTA, 2 mM DTT and 0.01% Tween-20) for 2 hours at room temperature. Reactions are stopped with EDTA, and anti-phospho-tyrosine antibodies (clone PT66) labeled with the TR-FRET europium chelate donor dye are added to a final concentration of 2 nM in a final volume of 20 μL. The TR-FRET signal emitted at 665 nm is read one hour after the addition of antibodies using a TR-FRET plate reader such as the Envision® Multilabel Plate reader (PerkinElmer). The emitted signal at 665 nm is proportional to the extent of peptide phosphorylation, Control reactions indicative of background are performed excluding ATP from the reaction.
(§2) Assay conditions are identical to those used described for FIG. 1.

[2] = molecular target: BTK (Homo sapiens, UniProt Q06187); experiment: TR-FRET kinase assay, BTK; conditions: Kinase Concentration 0.25 nM; 50 nM ULight-labeled substrate, 200 micromolar ATP, 2 hours
BTK, sequence (Q06187 whole entry, species assumed): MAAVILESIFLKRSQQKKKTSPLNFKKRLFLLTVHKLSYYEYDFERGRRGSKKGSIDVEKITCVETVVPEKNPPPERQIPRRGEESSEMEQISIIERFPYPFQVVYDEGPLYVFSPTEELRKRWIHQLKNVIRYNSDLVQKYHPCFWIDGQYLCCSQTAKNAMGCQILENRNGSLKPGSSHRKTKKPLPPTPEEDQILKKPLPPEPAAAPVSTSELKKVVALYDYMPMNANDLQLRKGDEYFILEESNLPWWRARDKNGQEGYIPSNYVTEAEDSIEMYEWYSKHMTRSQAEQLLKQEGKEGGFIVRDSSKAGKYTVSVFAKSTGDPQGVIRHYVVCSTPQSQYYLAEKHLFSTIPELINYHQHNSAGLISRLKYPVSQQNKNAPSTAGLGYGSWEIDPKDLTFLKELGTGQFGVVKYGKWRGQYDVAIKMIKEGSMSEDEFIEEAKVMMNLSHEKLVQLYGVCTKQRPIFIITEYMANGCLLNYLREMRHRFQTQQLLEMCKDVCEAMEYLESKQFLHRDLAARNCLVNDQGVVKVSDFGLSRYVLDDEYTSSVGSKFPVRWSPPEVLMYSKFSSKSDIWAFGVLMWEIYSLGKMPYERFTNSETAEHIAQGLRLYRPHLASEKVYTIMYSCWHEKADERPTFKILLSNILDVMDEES
Protocol: as §1, §2

[3] = molecular target: SRC (Homo sapiens, UniProt P12931); experiment: TR-FRET kinase assay, SRC; conditions: Kinase Concentration 0.5 nM; 50 nM ULight-labeled substrate, 200 micromolar ATP, 2 hours
Protocol: as §1, §2

[4] = molecular target: T2, TEC (Homo sapiens, UniProt P42680); experiment: TR-FRET kinase assay, TEC; conditions: Kinase Concentration 0.5 nM; 50 nM ULight-labeled substrate, 200 micromolar ATP, 2 hours
T2 sequence (P42680 1-631): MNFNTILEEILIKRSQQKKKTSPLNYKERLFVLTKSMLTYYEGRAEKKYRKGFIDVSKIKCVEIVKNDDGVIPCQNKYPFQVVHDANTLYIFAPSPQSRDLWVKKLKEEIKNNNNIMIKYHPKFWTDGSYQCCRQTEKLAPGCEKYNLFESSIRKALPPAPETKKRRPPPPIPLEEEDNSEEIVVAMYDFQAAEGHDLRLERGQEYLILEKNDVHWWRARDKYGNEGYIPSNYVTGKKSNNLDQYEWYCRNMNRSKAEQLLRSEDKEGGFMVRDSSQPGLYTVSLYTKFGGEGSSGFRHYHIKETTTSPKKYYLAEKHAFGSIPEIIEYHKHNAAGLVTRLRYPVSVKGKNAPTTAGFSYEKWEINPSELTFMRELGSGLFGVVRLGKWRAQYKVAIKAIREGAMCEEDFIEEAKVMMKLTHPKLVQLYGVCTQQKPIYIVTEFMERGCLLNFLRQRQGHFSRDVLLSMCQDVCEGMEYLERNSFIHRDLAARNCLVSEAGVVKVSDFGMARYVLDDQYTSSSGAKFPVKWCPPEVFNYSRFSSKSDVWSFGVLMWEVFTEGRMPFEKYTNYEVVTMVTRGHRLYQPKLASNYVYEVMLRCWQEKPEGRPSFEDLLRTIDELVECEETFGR
Protocol: as §1, §2

[5] = molecular target: AXL (Homo sapiens, UniProt P30530); experiment: TR-FRET kinase assay, AXL; conditions: Kinase Concentration 4 nM; 50 nM ULight-labeled substrate, 200 micromolar ATP, 2 hours
Protocol: as §1, §2

[6] = molecular target: IRR (Homo sapiens, UniProt P14616); experiment: TR-FRET kinase assay, IRR; conditions: Kinase Concentration 0.5 nM; 50 nM ULight-labeled substrate, 200 micromolar ATP, 2 hours
IRR, sequence (P14616 27-1297, species assumed): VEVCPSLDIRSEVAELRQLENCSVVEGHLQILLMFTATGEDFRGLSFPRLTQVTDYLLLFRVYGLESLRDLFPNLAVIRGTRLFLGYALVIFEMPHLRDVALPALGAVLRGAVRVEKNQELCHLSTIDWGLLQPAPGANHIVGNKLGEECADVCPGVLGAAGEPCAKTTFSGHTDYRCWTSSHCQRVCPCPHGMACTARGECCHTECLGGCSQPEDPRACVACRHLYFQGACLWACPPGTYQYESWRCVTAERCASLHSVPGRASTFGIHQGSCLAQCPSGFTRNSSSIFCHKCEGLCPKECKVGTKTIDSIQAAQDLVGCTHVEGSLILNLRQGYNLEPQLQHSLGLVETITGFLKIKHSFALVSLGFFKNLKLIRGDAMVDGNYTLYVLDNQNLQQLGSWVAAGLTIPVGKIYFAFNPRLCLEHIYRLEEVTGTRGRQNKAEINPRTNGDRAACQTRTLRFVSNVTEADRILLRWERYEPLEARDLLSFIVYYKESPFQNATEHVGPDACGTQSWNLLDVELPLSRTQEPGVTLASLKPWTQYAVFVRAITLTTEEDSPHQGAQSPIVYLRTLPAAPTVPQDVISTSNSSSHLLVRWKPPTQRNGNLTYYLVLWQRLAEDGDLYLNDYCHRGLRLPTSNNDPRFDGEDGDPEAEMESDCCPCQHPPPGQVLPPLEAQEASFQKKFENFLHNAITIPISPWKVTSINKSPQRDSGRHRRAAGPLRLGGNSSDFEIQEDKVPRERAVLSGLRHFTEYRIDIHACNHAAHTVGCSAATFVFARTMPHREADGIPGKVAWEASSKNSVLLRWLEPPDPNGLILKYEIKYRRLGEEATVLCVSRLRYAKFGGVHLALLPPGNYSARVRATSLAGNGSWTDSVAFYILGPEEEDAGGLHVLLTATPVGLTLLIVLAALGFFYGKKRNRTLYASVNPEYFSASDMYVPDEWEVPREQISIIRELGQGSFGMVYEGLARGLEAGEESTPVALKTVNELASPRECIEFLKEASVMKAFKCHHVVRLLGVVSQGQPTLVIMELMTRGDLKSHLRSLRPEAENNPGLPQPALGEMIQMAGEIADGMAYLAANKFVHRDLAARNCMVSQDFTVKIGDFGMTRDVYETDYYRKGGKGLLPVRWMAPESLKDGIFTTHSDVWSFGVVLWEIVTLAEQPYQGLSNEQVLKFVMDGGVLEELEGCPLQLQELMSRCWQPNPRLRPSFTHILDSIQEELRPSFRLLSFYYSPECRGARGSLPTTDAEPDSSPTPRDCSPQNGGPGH
Protocol: as §1, §2

[7] = molecular target: TRKB (NTRK2) (Homo sapiens, UniProt Q16620); experiment: TR-FRET kinase assay, TRKB (NTRK2); conditions: Kinase Concentration 0.5 nM; 50 nM ULight-labeled substrate, 200 micromolar ATP, 2 hours
Protocol: as §1, §2

Sequence: C AYE AYE AYE K EYA EYA EYA K AYA EYE R (CAYEAYEAYEKEYAEYAEYAKAYAEYER; tyrosine kinase substrate peptide) [BRB1]
- Signal to Noise ratio with BRB1 Peptide [1]: 7.1
- Signal to Noise ratio with BRB1 Peptide [2]: 6.8
- Signal to Noise ratio with BRB1 Peptide [3]: 31.7
- Signal to Noise ratio with BRB1 Peptide [4]: 18.6
- Signal to Noise ratio with BRB1 Peptide [5]: 1.8
- Signal to Noise ratio with BRB1 Peptide [6]: 19.2
- Signal to Noise ratio with BRB1 Peptide [7]: 28.0
